Source: PMC2719906

Molecular target: WASP GBD (GTPase binding domain, residues 242-310) (UniProt P42768)
Experiment: NMR titration

WASP GBD (GTPase binding domain, residues 242-310), sequence (P42768 242-310): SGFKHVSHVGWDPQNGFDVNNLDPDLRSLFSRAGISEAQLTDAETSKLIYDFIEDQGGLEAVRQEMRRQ
EspFU R5 (five-repeat fragment), sequence (P0DJ88 80-314): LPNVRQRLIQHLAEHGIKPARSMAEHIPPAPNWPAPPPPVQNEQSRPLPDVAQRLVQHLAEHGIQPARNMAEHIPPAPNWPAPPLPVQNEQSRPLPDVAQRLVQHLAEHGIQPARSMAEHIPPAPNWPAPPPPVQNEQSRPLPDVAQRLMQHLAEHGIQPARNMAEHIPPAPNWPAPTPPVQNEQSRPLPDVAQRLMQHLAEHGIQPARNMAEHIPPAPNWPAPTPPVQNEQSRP

EspFU R5 (five-repeat fragment) (from UniProt P0DJ88 80-314) (domain or fragment)
stoichiometry N: 0.2 EspFU:GBD
